Where a chain is given by its changes, count along the chain named. One block for each binder: values may come before it.
Columns and labels:
[1] = molecular target: T1, recombinant C-terminal polyhistidine-tagged human (extracellular) CD89 (Sino Biological) (human, UniProt P24071 22-227); experiment: ELISA, antibody before serum IgA on coated rhuCD89; IgA detected
T1 construct: extracellular domain; bought protein; also called rhuCD89; soluble monomeric rhuCD89
Procedure: After extensive washing with PBS/0.05% Tween 20, plates were blocked with PBS/0.05% Tween 20/1% BSA (Roche) for 1 hour at RT. Subsequently, plates were incubated with 25 µL titrated (in block buffer) purified mouse anti-human CD89 antibody/well for 30 minutes at RT. […] After extensive washing in PBS/0.05% Tween 20, 1:10,000 diluted HRP-conjugated streptavidin (Jackson ImmunoResearch) was added, and incubated for 1 hour at RT, followed by a ready-to-use solution of TMB substrate (Invitrogen) for colorimetric detection.

[2] = molecular target: T2, membrane full-length cynomolgus monkey CD89 on HEK293F cells (cynomolgus monkey); experiment: FACS, transiently transfected HEK293F
T2 construct: also called cynoCD89; cynomolgus EC1-CD89
T2 chain: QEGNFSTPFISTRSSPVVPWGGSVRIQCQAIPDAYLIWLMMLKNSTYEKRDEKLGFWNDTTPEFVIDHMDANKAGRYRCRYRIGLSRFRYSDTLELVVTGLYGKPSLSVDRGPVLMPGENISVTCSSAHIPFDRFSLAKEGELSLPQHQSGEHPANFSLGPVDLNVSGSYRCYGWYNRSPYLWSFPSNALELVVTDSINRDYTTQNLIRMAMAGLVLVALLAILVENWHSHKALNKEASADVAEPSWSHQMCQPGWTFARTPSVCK
Procedure: (§1) To this end, transient transfected HEK293F cells were put at 10 x 10⁶ cells/mL in ice-chilled phosphate-buffered saline containing 0.1% BSA (Sigma)/0.05% NaN₃ (PBS/BSA/NaN₃) supplemented with 50 µg/mL human IgGs (blocking FcY receptors; Sigma) for 10 minutes at 4° C. Then, 10 µL/tube (i.e., 0.1 × 10⁶ cells) of these cells were incubated with or without 100 µL purified mouse anti-human CD89 antibody at 10 µg/mL (in PBS/BSA/NaN₃) for 30 minutes at 4° C. […] After extensive washing in PBS/BSA/NaN₃, cells were subsequently incubated with 1:200 diluted PE-conjugated goat anti-mouse IgG Fcy-specific antibodies (Jackson ImmunoResearch) for 30 minutes at 4° C. After extensive washing in PBS/BSA/NaN₃, cells were fixed in 2% formaldehyde in PBS/BSA/NaN₃ for 30 minutes at 4° C.

[3] = molecular target: T3, chimeric human/cynomolgus monkey CD89-I on HEK293F cells (human/cynomolgus chimera, UniProt P24071 22-287); experiment: FACS, 10 µg/mL, transiently transfected HEK293F
T3 construct: also called dGln22 - Lys46 human EC1-CD89; I (22-46)
T3 chain: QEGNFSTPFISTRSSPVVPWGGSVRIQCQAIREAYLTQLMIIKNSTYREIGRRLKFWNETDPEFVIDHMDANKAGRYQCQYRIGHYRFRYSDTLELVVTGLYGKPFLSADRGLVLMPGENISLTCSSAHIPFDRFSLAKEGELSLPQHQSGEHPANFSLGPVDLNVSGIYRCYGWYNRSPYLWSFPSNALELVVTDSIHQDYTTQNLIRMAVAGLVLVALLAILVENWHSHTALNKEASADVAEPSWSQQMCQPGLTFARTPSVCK
Procedure: (§2) To this end, transient transfected HEK293F cells were put at 10 × 10⁶ cells/mL in ice-chilled phosphate-buffered saline containing 0.1% BSA (Sigma)/0.05% NaN₃ (PBS/BSA/NaN₃) supplemented with 50 µg/mL human IgGs (blocking FcY receptors; Sigma) for 10 minutes at 4° C. Then, 10 µL/tube (i.e., 0.1 × 10⁶ cells) of these cells were incubated with or without 100 µL purified mouse anti-human CD89 antibody at 10 µg/mL (in PBS/BSA/NaN₃) for 30 minutes at 4° C. […] After extensive washing in PBS/BSA/NaN₃, cells were subsequently incubated with 1:200 diluted PE-conjugated goat anti-mouse IgG Fcy-specific antibodies (Jackson ImmunoResearch) for 30 minutes at 4° C. After extensive washing in PBS/BSA/NaN₃, cells were fixed in 2% formaldehyde in PBS/BSA/NaN₃ for 30 minutes at 4° C.

[4] = molecular target: T4, chimeric human/cynomolgus monkey CD89-II on HEK293F cells (human/cynomolgus chimera, UniProt P24071 22-287); experiment: FACS, 10 µg/mL, transiently transfected HEK293F
T4 construct: also called dIle47 - Ile71 human EC1-CD89; II (47-71)
T4 chain: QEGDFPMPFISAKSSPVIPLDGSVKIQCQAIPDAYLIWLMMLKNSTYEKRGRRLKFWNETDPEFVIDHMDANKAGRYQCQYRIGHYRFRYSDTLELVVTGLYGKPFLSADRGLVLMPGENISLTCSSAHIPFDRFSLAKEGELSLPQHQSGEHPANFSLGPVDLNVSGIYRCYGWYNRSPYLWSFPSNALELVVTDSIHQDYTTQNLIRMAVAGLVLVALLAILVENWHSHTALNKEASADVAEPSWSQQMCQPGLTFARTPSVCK
Procedure: as §2

[5] = molecular target: T5, chimeric human/cynomolgus monkey CD89-IV on HEK293F cells (human/cynomolgus chimera, UniProt P24071 22-287); experiment: FACS, 10 µg/mL, transiently transfected HEK293F
T5 construct: also called dArg97 - Gly121 human EC1-CD89
T5 chain: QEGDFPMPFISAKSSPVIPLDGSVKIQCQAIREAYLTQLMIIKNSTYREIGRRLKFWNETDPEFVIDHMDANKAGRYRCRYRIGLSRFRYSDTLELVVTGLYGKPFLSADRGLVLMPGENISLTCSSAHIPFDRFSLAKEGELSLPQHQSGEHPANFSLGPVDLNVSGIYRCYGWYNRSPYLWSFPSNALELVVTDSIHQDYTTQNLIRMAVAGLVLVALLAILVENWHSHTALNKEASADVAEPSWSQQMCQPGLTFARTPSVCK
Procedure: as §2

[6] = molecular target: T1, recombinant C-terminal …; experiment: ELISA on coated rhuCD89
Procedure: (§3) After extensive washing with PBS/0.05% Tween 20, plates were blocked with PBS/0.05% Tween 20/1% BSA (Roche) for 1 hour at RT. Subsequently, plates were incubated with 50 µL titrated (in block buffer) purified mouse anti-human CD89 antibody/well for 1 hour at RT. […] After extensive washing in PBS/0.05% Tween 20, binding of antibodies on rhuCD89 was determined with 1:5,000 diluted horseradish peroxidase (HRP)-conjugated goat anti-mouse IgG Fcy-specific antibodies (Jackson ImmunoResearch) for 1 hour at RT, followed by a ready-to-use solution of TMB substrate (Invitrogen) for colorimetric detection.

[7] = molecular target: T6, chimeric bovine EC1-Fcgamma2R/human EC2-CD89 on HEK293F cells (bovine/human chimera); experiment: FACS, transiently transfected HEK293F
T6 chain: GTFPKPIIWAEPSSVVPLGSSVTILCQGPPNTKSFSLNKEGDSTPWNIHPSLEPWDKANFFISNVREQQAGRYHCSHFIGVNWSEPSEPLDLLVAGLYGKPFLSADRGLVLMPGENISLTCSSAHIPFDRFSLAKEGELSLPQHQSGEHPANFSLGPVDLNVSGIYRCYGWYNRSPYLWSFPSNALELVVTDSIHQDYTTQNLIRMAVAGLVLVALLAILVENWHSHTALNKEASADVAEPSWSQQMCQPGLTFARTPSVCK
Procedure: To this end, transient transfected HEK293F cells were put at 10 × 10⁶ cells/mL in ice-chilled phosphate-buffered saline containing 0.1% BSA (Sigma)/0.05% NaN₃ (PBS/BSA/NaN₃) supplemented with 50 µg/mL human IgGs (blocking Fcy receptors; Sigma) for 10 minutes at 4° C. Then, 10 µL/tube (i.e., 0.1 × 10⁶ cells) of these cells were incubated with or without 100 µL purified mouse anti-human CD89 antibody at 10 µg/mL (in PBS/BSA/NaN₃) for 30 minutes at 4° C. […] After extensive washing in PBS/BSA/NaN₃, cells were subsequently incubated with 1:200 diluted PE-conjugated goat anti-mouse IgG Fcy-specific antibodies (Jackson ImmunoResearch) for 30 minutes at 4° C. After extensive washing in PBS/BSA/NaN₃, cells were fixed in 2% formaldehyde in PBS/BSA/NaN₃ for 30 minutes at 4° C.

[8] = molecular target: T7, membrane-bound full-length human CD89 on HEK293F cells (human, UniProt P24071 22-287); experiment: FACS, antibody before serum IgA on HEK293F-huCD89; IgA detected
T7 construct: 2 or transient transfectants; also called membrane human CD89; human FcaRI
Procedure: Then, 10 µL/tube (i.e., 0.1 x 10⁶ cells) of these cells were incubated with 50 µL titrated (in PBS/BSA/NaN₃) purified mouse anti-human CD89 antibody/tube for 30 minutes at 4° C. […] After extensive washing in PBS/BSA/NaN₃, 1:200 diluted PE-conjugated streptavidin (Jackson ImmunoResearch) was added, and incubated for 30 minutes at 4° C. After extensive washing in PBS/BSA/NaN₃, cells were fixed in 2% formaldehyde in PBS/BSA/NaN₃ for 30 minutes at 4° C.

[9] = molecular target: T7, membrane-bound full-length human CD89 …; experiment: FACS HEK293F-huCD89, 10 ug/mL; competitor PE-A59
Procedure: (§4) Then, 10 µL/tube (i.e., 0.1 × 10⁶ cells) of these cells were incubated with or without 100 µL purified mouse anti-human CD89 antibody at 10 µg/mL (in PBS/BSA/NaN₃) for 30 minutes at 4° C. […] After extensive washing in PBS/BSA/NaN₃, cells were fixed in 2% formaldehyde in PBS/BSA/NaN₃ for 30 minutes at 4° C.

[10] = molecular target: T7, membrane-bound full-length human CD89 …; experiment: FACS HEK293F-huCD89
Procedure: After extensive washing in PBS/BSA/NaN₃, cells were subsequently incubated with 1:200 diluted PE-conjugated goat anti-human IgG Fcy-specific antibodies (Jackson ImmunoResearch) for 30 minutes at 4° C. After extensive washing in PBS/BSA/NaN₃, cells were fixed in 2% formaldehyde in PBS/BSA/NaN₃ for 30 minutes at 4° C.

[11] = molecular target: T7, membrane-bound full-length human CD89 …; experiment: FACS, antibody before secretory IgA on HEK293F-huCD89; IgA detected
Procedure: Then, 10 µL/tube (i.e., 0.1 x 10⁶ cells) of these cells were incubated with or without 50 µL titrated (in PBS/BSA/NaN₃) purified mouse anti-human CD89 antibody/tube for 30 minutes at 4° C. […] After extensive washing in PBS/BSA/NaN₃, 1:200 diluted PE-conjugated streptavidin (Jackson ImmunoResearch) was added, and incubated for 30 minutes at 4° C. After extensive washing in PBS/BSA/NaN₃, cells were fixed in 4% formaldehyde in PBS/BSA/NaN₃ for 30 minutes at 4° C.

[12] = molecular target: T7, membrane-bound full-length human CD89 …; experiment: FACS HEK293F-huCD89, 10 ug/mL; competitor PE-MIP8a
Procedure: as §4

[13] = molecular target: T7, membrane-bound full-length human CD89 …; experiment: FACS HEK293F-huCD89, 10 ug/mL; competitor PE-A3
Procedure: as §4

[14] = molecular target: T7, membrane-bound full-length human CD89 …; experiment: FACS on HEK293F-huCD89
Procedure: Then, 10 µL/tube (i.e., 0.1 x 10⁶ cells) of these cells were incubated with 100 µL titrated (in PBS/BSA/NaN₃) purified mouse anti-human CD89 antibody/tube for 30 minutes at 4° C. […] After extensive washing in PBS/BSA/NaN₃, cells were subsequently incubated with 1:200 diluted PE-conjugated goat anti-mouse IgG Fcy-specific antibodies (Jackson ImmunoResearch) for 30 minutes at 4° C. After extensive washing in PBS/BSA/NaN₃, cells were fixed in 2% formaldehyde in PBS/BSA/NaN₃ for 30 minutes at 4° C.

[15] = molecular target: T8, chimeric human/cynomolgus monkey CD89-hotspots on HEK293F cells (human/cynomolgus chimera, UniProt P24071 22-287); experiment: FACS, transiently transfected HEK293F
T8 construct: also called dThr58, Gln59; dArg73, Arg74, Lys76
T8 chain: T5 chain with T37I, Q38W, R52E, R53K, K55G, R78Q, R80Q
Procedure: as §2

[16] = molecular target: T9, chimeric human/cynomolgus monkey CD89-III on HEK293F cells (human/cynomolgus chimera, UniProt P24071 22-287); experiment: FACS, transiently transfected HEK293F
T9 construct: also called dGly72 - Gly96 human EC1-CD89; III (72-96)
T9 chain: T5 chain with G51D, R52E, R53K, K55G, E59D, D61T, R78Q, R80Q, L85H, S86Y
Procedure: as §2

[17] = molecular target: T1, recombinant C-terminal …; experiment: ELISA, coated rhuCD89
Procedure: as §3
After extensive washing with PBS/0.05% Tween 20, plates were blocked with PBS/0.05% Tween 20/1% BSA (Roche) for 1 hour at RT. […] After extensive washing in PBS/0.05% Tween 20, binding of antibodies on rhuCD89 was determined with 1:5,000 diluted horseradish peroxidase (HRP)-conjugated goat anti-human IgG Fcy-specific antibodies (Jackson ImmunoResearch) for 1 hour at RT, followed by a ready-to-use solution of TMB substrate (Invitrogen) for colorimetric detection.

[18] = molecular target: T9, chimeric human/cynomolgus monkey …; experiment: FACS, 10 µg/mL, transiently transfected HEK293F
Procedure: as §2

[19] = molecular target: T2, membrane full-length cynomolgus monkey …; experiment: FACS, 10 µg/mL, transiently transfected HEK293F
Procedure: as §1

[20] = molecular target: T10, membrane human CD89 on ex vivo primary human neutrophilic granulocytes or monocytic U937 cells (human, UniProt P24071 22-287); experiment: cell-based or functional assay
[21] = molecular target: T7, membrane-bound full-length human CD89 …; experiment: FACS, unlabelled antibody before MIP8a-PE on HEK293F-huCD89
[22] = molecular target: T10, membrane human CD89 on ex vivo primary …; experiment: cell-based or functional assay; remark: listed apart in the source
[23] = molecular target: T7, membrane-bound full-length human CD89 …; experiment: FACS, unlabelled antibody before A3-PE on HEK293F-huCD89

IC50 (read off the curve) [1]: ~0.09 µg/mL
binding result [2]: no binding (tested: 10 µg/mL)
binding result [3]: binds
binding result [4]: binds
binding result [5]: binds
EC50 (read off the curve) [6]: ~0.03 µg/mL
binding result [7]: no binding (tested: 10 µg/mL)
IC50 (read off the curve) [8]: ~0.8 µg/mL
% blocking of PE-A59 binding [9]: < 25%
EC50 [10]: 0.714 µg/mL
IC50 (read off the curve) [11]: ~0.8 µg/mL
% blocking of PE-MIP8a binding [12]: < 25%
% blocking of PE-A3 binding [13]: < 25%
EC50 (read off the curve) [14]: ~0.4 µg/mL
binding result [15]: no binding (tested: 10 µg/mL)
binding result [16]: no binding (tested: 10 µg/mL)
EC50 [17]: 0.052 µg/mL
B1: CD89/IgA blocking mouse anti-human CD89-specific antibody 8F3 (antibody, V domains shown)
VH: EVQLVESGGGLVKPGGSLKLSCAASGFTFSNYGMSWVRQTPDKRLEWVATMHSGGTYTYYPDNVKGRFTISRDNAKNNLYLQMSSLRSEDTAMYYCARETGLYDGLFDFWGQGTTLTVSS
VL: DVQITQSPSYLAASPGETITINCRASKTISKYLAWYQEKPGKTNMLLIYSGSTLQSGVPSRFSGSGSGTDFTLTISSLEPEDLAMYYCQQHDEYPWTFGGGTKLEIK
notes: also called mouse 8F3

binding result [3]: binds
binding result [4]: binds
binding result [5]: binds
binding result [18]: binds
binding result [7]: no binding (tested: 10 µg/mL)
binding result [19]: binds
% blocking of PE-A59 binding [9]: < 25%
EC50 [10]: 1.62 µg/mL
% blocking of PE-MIP8a binding [12]: < 25%
% blocking of PE-A3 binding [13]: < 25%
binding result [15]: no binding (tested: 10 µg/mL)
EC50 [17]: 0.119 µg/mL
B2: CD89/IgA blocking mouse anti-human CD89-specific antibody 16D6 (antibody, V domains shown)
VH: QVQLQQSGAELMKPGASVKISCKATGYTFSTYWIEWVKQRPGHGLEWIGEILPGSGSANYNEKFKGKATFTADTSSNTAYMQLSSLTFEDSAVYYCAKGFGSPYYYAMDYWGQGTSVTVSS
VL: EIVLTQSPALMAASPGEKVTITCSVSSSISSSNLHWYQQKSETSPKPWIYGTSKLASGVPVRFSGSGSGTSYSLTISNMEAEDAATYYCQQWSSFPLTFGGGTKLEIK
notes: also called 16D16 [sic]

IC50 (read off the curve) [1]: ~0.03 µg/mL
EC50 (read off the curve) [6]: ~0.01 µg/mL
IC50 (read off the curve) [8]: ~0.2 µg/mL
IC50 (read off the curve) [11]: ~0.4 µg/mL
IC50 (read off the bars), binding of granulocytes to plate-bound serum IgA [Donor 2] [20]: ~0.2 µg/mL
IC50 (read off the curve) [21]: ~0.4 µg/mL
IC50 (read off the bars), binding of granulocytes to plate-bound serum IgA [Donor 1] [22]: ~0.9 µg/mL
% blocking of PE-MIP8a binding [12]: > 90%
IC50 (read off the curve) [23]: ~0.4 µg/mL
EC50 (read off the curve) [14]: ~0.2 µg/mL
B3: CD89/IgA blocking mouse anti-human CD89-specific antibody 9H7 (antibody, V domains shown)
VH: QIQLVQSGPELKKPGETVKISCKASGYTFKNYGMNWVKQAPGKGLKWMAWINTYTGEPTHTDDFKGRFVFSLETSASTAYLQINNLKNEDTATYFCARWGLGTTEEAARDYWGQGTTLTVSS
VL: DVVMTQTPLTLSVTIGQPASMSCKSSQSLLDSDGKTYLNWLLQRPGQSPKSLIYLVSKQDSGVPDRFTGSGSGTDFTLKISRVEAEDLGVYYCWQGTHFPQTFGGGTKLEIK
